According to publication PMC2267068, “Comparative Analysis of Metal Binding Characteristics of Copper Chaperone Proteins, Atx1 and ATOX1” (Bioinorganic Chemistry and Applications, 2004):
Several values for one entry are separate records, joined by “and”; a condition that tells them apart may be missing. Equal entries are not always repeated.

Tests used:
[1] = target: T1, Atx1 (yeast copper chaperone) (yeast (Saccharomyces cerevisiae)), P38636; assay: SEC; Bio-Gel P-10 column (1.5 x 60 cm), 20 mM MES pH 6.0; reduced apoprotein (+DTT 3:1); 0.3, 0.5 and 0.3 mM ATOX1, C41S-ATOX1 and Atx1; size against myoglobin (18 kDa) and cytochrome C (12.5 kDa); conditions: remark: other sources report otherwise
T1 chain: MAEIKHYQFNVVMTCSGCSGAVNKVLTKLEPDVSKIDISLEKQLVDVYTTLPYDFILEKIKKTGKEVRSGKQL

[2] = target: T1, Atx1 (yeast copper chaperone) (yeast …); assay: cross-linking; Hg(II) + DTT; DMS or EGS for ATOX1, EGS for Atx1; products on SDS-PAGE; conditions: remark: other sources report otherwise
[3] = target: T1, Atx1 (yeast copper chaperone) (yeast …); assay: SEC; Bio-Gel P-10 column (1.5 x 60 cm), 20 mM MES pH 6.0; Cd(II) complex (metal 1:1, DTT 3:1); 0.3, 0.5 and 0.3 mM ATOX1, C41S-ATOX1 and Atx1; size against myoglobin (18 kDa) and cytochrome C (12.5 kDa); conditions: remark: other sources report otherwise
[4] = target: T1, Atx1 (yeast copper chaperone) (yeast …); assay: cross-linking; EGS (spacer arm 16.1 A), Cd(II) + DTT; products on SDS-PAGE; conditions: remark: other sources report otherwise
[5] = target: T2, ATOX1 (human copper chaperone), wild type (human), O00244; assay: SEC; Bio-Gel P-10 column (1.5 x 60 cm), 20 mM MES pH 6.0; reduced apoprotein (+DTT 3:1); 0.3, 0.5 and 0.3 mM ATOX1, C41S-ATOX1 and Atx1; size against myoglobin (18 kDa) and cytochrome C (12.5 kDa); conditions: remark: other sources report otherwise
T2 chain: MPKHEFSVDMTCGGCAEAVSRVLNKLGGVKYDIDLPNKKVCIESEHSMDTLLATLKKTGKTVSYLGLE

[6] = target: T2, ATOX1 (human copper chaperone), wild …; assay: cross-linking; DMS (spacer arm 11 A), Cd(II) + DTT; products on SDS-PAGE; conditions: remark: other sources report otherwise
[7] = target: T2, ATOX1 (human copper chaperone), wild …; assay: cross-linking; metal complexes + DTT (which metals not told), DMS or EGS; faint higher bands on SDS-PAGE; conditions: remark: other sources report otherwise
[8] = target: T2, ATOX1 (human copper chaperone), wild …; assay: cross-linking; Hg(II) + DTT; DMS or EGS for ATOX1, EGS for Atx1; products on SDS-PAGE; conditions: remark: other sources report otherwise
[9] = target: T2, ATOX1 (human copper chaperone), wild …; assay: SEC; Bio-Gel P-10 column (1.5 x 60 cm), 20 mM MES pH 6.0; Cd(II) complex (metal 1:1, DTT 3:1); 0.3, 0.5 and 0.3 mM ATOX1, C41S-ATOX1 and Atx1; size against myoglobin (18 kDa) and cytochrome C (12.5 kDa); conditions: remark: other sources report otherwise
[10] = target: T2, ATOX1 (human copper chaperone), wild …; assay: cross-linking; EGS (spacer arm 16.1 A), Cd(II) + DTT; products on SDS-PAGE; conditions: remark: other sources report otherwise
[11] = target: the molecule itself; assay: SEC; Bio-Gel P-10 column (1.5 x 60 cm), 20 mM MES pH 6.0; reduced apoprotein (+DTT 3:1); 0.3, 0.5 and 0.3 mM ATOX1, C41S-ATOX1 and Atx1; size against myoglobin (18 kDa) and cytochrome C (12.5 kDa)

B1: Atx1 (yeast copper chaperone), P38636 1-73 (natural protein)
chain: MAEIKHYQFNVVMTCSGCSGAVNKVLTKLEPDVSKIDISLEKQLVDVYTTLPYDFILEKIKKTGKEVRSGKQL
[1]
  stoichiometry N: 2
[2]
  stoichiometry N: 2
[3]
  stoichiometry N: 2
[4]
  stoichiometry N: 2

B2: ATOX1 (human copper chaperone), wild type, O00244 1-68 (natural protein)
chain: MPKHEFSVDMTCGGCAEAVSRVLNKLGGVKYDIDLPNKKVCIESEHSMDTLLATLKKTGKTVSYLGLE
[5]
  stoichiometry N: 2
[6]
  stoichiometry N: 2
[7]
  stoichiometry N: 3 and 4
[8]
  stoichiometry N: 2
[9]
  stoichiometry N: 2
[10]
  stoichiometry N: 2

B3: C41S-ATOX1 (natural protein, human, UniProt O00244 1-68, looked up)
chain: MPKHEFSVDMTCGGCAEAVSRVLNKLGGVKYDIDLPNKKVSIESEHSMDTLLATLKKTGKTVSYLGLE
notes: ATOX1 (HAH1), human copper chaperone, with the non-conserved Cys 41 mutated to Ser; Made on the ATOX1 construct in pGEX-6P-2 to imitate Atx1, which lacks this Cys; also called C41S-ATOXI; source: E. coli BL21 (DE3), GST fusion from pGEX-6P-2, purified, GST removed with PreScission protease; not shown: GST, N-terminal, cleaved
[11]
  stoichiometry N: 2
